According to article PMC4278837, “A Cyclic Peptidic Serine Protease Inhibitor: Increasing Affinity by Increasing Peptide Flexibility” (PLoS ONE, 2014):
Bridge positions count the residues as written; N and C are the ends. Ends that are not written are not given here.

How the values were obtained:
Test in all cases: enzyme inhibition (steady state, chromogenic substrate S-2444); about 2 nM enzyme (purified or conditioned medium of transfected cells) pre-incubated 15 min with varied peptide in HBS (10 mM HEPES pH 7.4, 140 mM NaCl) with 0.1% BSA at 37°C; substrate about KM; fit for competitive inhibition; highest peptide concentration 400 µM
[1] = biological target: muPA-V213T (murine)
[2] = biological target: muPA-K143A (murine)
[3] = biological target: muPA-S190A (murine)
[4] = biological target: muPA-Y99A (murine)
[5] = biological target: muPA-K41A (murine)

| Ki [1] | Ki [2] | Ki [3] | Ki [4] | Ki [5] | Binder |
| --- | --- | --- | --- | --- | --- |
| 0.373 µM | 4.34 µM | 3.02 µM | 27.2 µM | 0.27 µM | CPAYSRYLAC (disulfide 1-10 (inferred)) [Mupain-1 D9A] |
| 0.246 µM | 4.88 µM | 1.6 µM | 26 µM | 4.29 µM | CPAYSRYLDC (disulfide 1-10 (inferred)) [mupain-1] |
